Measurements reported in patent US20240301031A1 (JIANGSU HENGRUI PHARMACEUTICALS, published 2024).
Substitutions are numbered along the chain they refer to. Where two headings read alike, the source gives them in different places.

Experiments:
[1] = biological target: T1, human BAFF (10056-HNCH, Sino biological) (human, UniProt Q9Y275 134-285); experiment: competition ELISA: biotin-labeled BAFF to coated BAFF-R
T1 construct: Bought protein
Protocol: (§1) The blocking activity of the antibodies and the fusion proteins for receptors and ligands such as BAFF/BAFF-R, BAFF/BCMA, BAFF/TACI, APRIL/BCMA, APRIL/TACI, and p40/IL-12R1 was assayed by the ELISA method. The specific procedures were as follows:
(§2) A receptor protein was diluted to 2 μg/mL with PBS at pH 7.4 (BasalMedia, B320) and added to a 96-well microplate (Corning, 3590) at 100 μL/well. The plate was incubated at 4° C. overnight. After the liquid was discarded, 200 μL of 1% Casein blocking solution (Thermo, 37528) was added to each well for blocking, and the plate was incubated at 37° C. for 2 h. After the blocking was completed, the blocking solution was discarded, and the plate was washed 3 times with a PBST buffer (PBS at pH 7.4 containing 0.1% tween-20) for later use. A biotin-labeled ligand protein at a fixed concentration was mixed with the antibody or fusion protein diluted in gradient, pre-incubated at 37° C. for 30 min, and added to a blocked microplate. The plate was incubated at 37° C. for 1.5 h. After the incubation was completed, the plate was washed 3 times with PBST. 100 μL of streptavidin-HRP (Invitrogen, 434323, diluted at a ratio of 1:4000) was added to each well, and the plate was incubated at 37° C. for 1 h. The supernatant was removed, and the plate was washed 3 times with PBST. 100 μL of TMB chromogenic substrate (KPL, 5120-0077) was added to each well, and the plate was incubated at room temperature for 10-15 min. The reaction was stopped by adding 50 μL of 1 M H₂SO₄ to each well. The plate was read for absorbance values at 450 nm on a microplate reader, the curves for the inhibition of the binding of the ligands to the receptors were fitted with software, and the IC₅₀ values were calculated.

[2] = biological target: T2, human APRIL (5860-AP-010/CF, R&D Systems) (human, UniProt O75888 115-250, limits assumed); experiment: cell-based or functional assay
T2 sequence (looked up): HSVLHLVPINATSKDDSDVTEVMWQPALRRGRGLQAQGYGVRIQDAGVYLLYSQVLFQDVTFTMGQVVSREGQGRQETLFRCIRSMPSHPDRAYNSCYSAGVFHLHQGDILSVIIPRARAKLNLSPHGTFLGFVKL

[3] = biological target: T3, BAFF (ACROBiosystems, BAF-H5248) (UniProt Q9Y275 134-285); experiment: ELISA, fusion protein coated, BAFF titrated, Anti-His-HRP
T3 construct: Bought protein used in the ELISA with coated test sample
Protocol: The binding activity of the TACI fusion proteins for BAFF and APRIL was assayed by the ELISA method (coating a test fusion protein sample). The specific procedures were as follows:
The test sample was diluted to 2 μg/mL with a PBS (BasalMedia, B320) buffer at pH 7.4 and added to a 96-well microplate (Corning, 3590) at 100 μL/well. The plate was incubated at 4° C. overnight. After the liquid was discarded, 300 μL of 5% skim milk (BD, 232100) diluted with PBS was added to each well for blocking, and the plate was incubated at 37° C. for 2 h. After the blocking was completed, the blocking solution was discarded, and the plate was washed 3 times with a PBST buffer (PBS at pH 7.4 containing 0.1% tween-20). 100 μL of BAFF (ACROBiosystems, BAF-H5248) or APRIL (R&D Systems, 5860-AP-010/CF) diluted in a gradient was added to each well, and the plate was incubated at 37° C. for 1 h. After the incubation, the plate was washed 3 times with PBST. When detecting the binding to BAFF, 100 μL of Anti-His-HRP (Sino biological, 105327-MM02T-H, diluted at a ratio of 1:2000) was added to each well; when detecting the binding to APRIL, 100 μL of anti-HA-HRP (Abcam, ab1190, diluted at a ratio of 1:4000) was added to each well. The plate was incubated at 37° C. for 1 h. The plate was washed 3 times with PBST. 100 μL of TMB chromogenic substrate (KPL, 5120-0077) was added to each well, and the plate was incubated at room temperature for 10-15 min. The reaction was stopped by adding 50 μL of 1 M H₂SO₄ to each well. The plate was read for absorbance values at 450 nm on a microplate reader, the binding curves of the antibodies to an antigen were fitted with software, and the EC₅₀ values were calculated.

[4] = biological target: BAFF (R&D Systems, 7537-BF) (UniProt Q9Y275 134-285); experiment: cell-based or functional assay
[5] = biological target: T1, human BAFF (10056-HNCH, Sino biological); experiment: competition ELISA: biotin-labeled BAFF to coated BAFF-R; remark: listed apart in the source
Protocol: as §1, §2

[6] = biological target: T1, human BAFF (10056-HNCH, Sino biological); experiment: as above; remark: listed apart in the source
Protocol: as §1, §2

[7] = biological target: T1, human BAFF (10056-HNCH, Sino biological); experiment: ELISA, BAFF coated, fusion protein titrated
Protocol: (§3) The binding activity of the antibodies or fusion proteins for BAFF, APRIL, and IL-12/23 p40 was assayed by the ELISA method (coating an antigen protein). The specific procedures were as follows:
(§4) A BAFF (Sino biological, 10056-HNCH), APRIL (R&D Systems, 5860-AP-010/CF), or IL-12/23 p40 (Sino biological, 10052-H08H) protein was diluted to 1 μg/mL with a PBS (BasalMedia, B320) buffer at pH 7.4, and added to a 96-well microplate (Corning, 3590) at 100 μL/well. The plate was incubated at 4° C. overnight. After the liquid was discarded, 300 μL of 5% skim milk (BD, 232100) diluted with PBS was added to each well for blocking, and the plate was incubated at 37° C. for 2 h. After the blocking was completed, the blocking solution was discarded, and the plate was washed 3 times with a PBST buffer (PBS at pH 7.4 containing 0.1% tween-20). 100 μL of test antibody or fusion protein solution diluted in a gradient was added to each well, and the plate was incubated at 37° C. for 1 h. After the incubation was completed, the plate was washed 3 times with PBST. […] The plate was washed 3 times with PBST. 100 μL of TMB chromogenic substrate (KPL, 5120-0077) was added to each well, and the plate was incubated at room temperature for 10-15 min. The reaction was stopped by adding 50 μL of 1 M H₂SO₄ to each well. The plate was read for absorbance values at 450 nm on a microplate reader, the binding curves of the antibodies to an antigen were fitted with software, and the EC₅₀ values were calculated.

[8] = biological target: T1, human BAFF (10056-HNCH, Sino biological); experiment: ELISA, BAFF coated, fusion protein titrated; remark: listed apart in the source
Protocol: as §3, §4

[9] = biological target: T1, human BAFF (10056-HNCH, Sino biological); experiment: SPR (Biacore), sample captured on Protein A, antigen flowed, 1:1 fit
[10] = biological target: T2, human APRIL (5860-AP-010/CF, R&D …); experiment: as above
Protocol: A certain amount of test sample was subjected to affinity capture by a biosensor chip Protein A (GE, 29127556), then antigens at a series of concentration gradients were allowed to flow on the surface of the chip. The reaction signals were detected in real time by using Biacore (GE, 8K) to obtain association and dissociation curves. After the dissociation was completed for each cycle, the biochip was washed and regenerated with a 10 mM glycine-hydrochloric acid solution at pH 1.5 (GE, BR-1003-54). The experimental data were fitted using BIAevaluation version 4.1, GE software with a 1:1 model to obtain affinity values. The related antigen proteins used in this assay are as follows: human IL-23 (CT048-H08H, Sino biological), human IL-12 (CT050-H08H, Sino biological), human BAFF (10056-HNCH, Sino biological), human APRIL (5860-AP-010/CF, R&D Systems), cynomolgus monkey p40 (10215-CL, R&D Systems), cynomolgus monkey BAFF (BAF-CM412B, Kactus), cynomolgus monkey APRIL (APR-CM410B, Kactus), mouse BAFF (BAF-M521y, Acro Biosystems), and mouse APRIL (7907-AP/CF, R&D Systems).

B1: TACI-9-15Fc6 fusion protein (Fc fusion)
chain: STSCREEQGEFYDHLLRDCISCASICGQHPKQCAAFCEEPKSSDKTHTCPPCPAPEAEGAPSVFLFPPKPKDTLMISRTPEVTCVVVDVSHEDPEVKFNWYVDGVEVHNAKTKPREEQYNSTYRVVSVLTVLHQDWLNGKEYKCKVSNKALPSSIEKTISKAKGQPREPQVYTLPPSRDELTKNQVSLTCLVKGFYPSDIAVEWESNGQPENNYKTTPPVLDSDGSFFLYSKLTVDKSRWQQGNVFSCSVMHEALHNHYTQKSLSLSPGK
notes: Full-length chain
B1 was tested, and the IC50 [1] was 1.87 nM, the “IC50 (nM) for the inhibition of the APRIL-induced B cell proliferation” value [2] was 0.14 nM and the EC50 [3] was 8.48 nM. The “IC50 (nM) for the inhibition of the BAFF-induced B cell proliferation” value [4] was 0.0481 nM.

B2: TACI-9 Fc (Fc fusion)
chain: SLSCRKEQGKFYDHLLRDCISCASICGQHPKQCAYFCENKLDKTHTCPPCPAPEAEGAPSVFLFPPKPKDTLMISRTPEVTCVVVDVSHEDPEVKFNWYVDGVEVHNAKTKPREEQYNSTYRVVSVLTVLHQDWLNGKEYKCKVSNKALPSSIEKTISKAKGQPREPQVYTLPPSRDELTKNQVSLTCLVKGFYPSDIAVEWESNGQPENNYKTTPPVLDSDGSFFLYSKLTVDKSRWQQGNVFSCSVMHEALHNHYTQKSLSLSPGK
notes: TACI positions 68-108, no mutation, fused directly to Fc; two identical polypeptides
B2 showed an IC50 [5] of 5.02 nM, an IC50 [6] of 2.09 nM and an EC50 [7] of 0.418 nM. For the same binder, the EC50 [8] was 0.49 nM, the Kd [9] was 0.0748 nM and the koff [9] was 1.62e-05 s⁻¹. For the same binder, the kon [9] was 217000 M⁻¹ s⁻¹, the Kd [10] was 0.018 nM and the koff [10] was 0.000207 s⁻¹. The kon [10] was 1.15e+07 M⁻¹ s⁻¹.

B3: TACI-11 Fc (Fc fusion)
chain: SLSCRKEQGKFYDHLLRDCISCASICGQHPKQCAYFCENDKTHTCPPCPAPEAEGAPSVFLFPPKPKDTLMISRTPEVTCVVVDVSHEDPEVKFNWYVDGVEVHNAKTKPREEQYNSTYRVVSVLTVLHQDWLNGKEYKCKVSNKALPSSIEKTISKAKGQPREPQVYTLPPSRDELTKNQVSLTCLVKGFYPSDIAVEWESNGQPENNYKTTPPVLDSDGSFFLYSKLTVDKSRWQQGNVFSCSVMHEALHNHYTQKSLSLSPGK
notes: TACI-9 truncated at the C-terminus by 2 amino acids KL, fused directly to Fc; two identical polypeptides
Binder B3 has an IC50 [6] of 2.62 nM and an EC50 [8] of 0.584 nM.

B4: TACI-12 Fc (Fc fusion)
chain: SLSCRKEQGKFYDHLLRDCISCASICGQHPKQCAYFCEDKTHTCPPCPAPEAEGAPSVFLFPPKPKDTLMISRTPEVTCVVVDVSHEDPEVKFNWYVDGVEVHNAKTKPREEQYNSTYRVVSVLTVLHQDWLNGKEYKCKVSNKALPSSIEKTISKAKGQPREPQVYTLPPSRDELTKNQVSLTCLVKGFYPSDIAVEWESNGQPENNYKTTPPVLDSDGSFFLYSKLTVDKSRWQQGNVFSCSVMHEALHNHYTQKSLSLSPGK
notes: TACI-9 truncated at the C-terminus by 3 amino acids NKL, fused directly to Fc; two identical polypeptides
In the case of B4, the IC50 [6] is reported as 3.86 nM and the EC50 [8] is reported as 0.894 nM.

B5: TACI-9-15Fc5 fusion protein (Fc fusion)
chain: B4 chain with L2T, K6E, K10E, Y35A
notes: Full-length chain
B5 was tested, and the IC50 [1] was 1.44 nM and the EC50 [3] was 8.89 nM.

B6: TACI-13 Fc (Fc fusion)
chain: SLSCRKEQGKFYDHLLRDCISCASICGQHPKQCAYFCDKTHTCPPCPAPEAEGAPSVFLFPPKPKDTLMISRTPEVTCVVVDVSHEDPEVKFNWYVDGVEVHNAKTKPREEQYNSTYRVVSVLTVLHQDWLNGKEYKCKVSNKALPSSIEKTISKAKGQPREPQVYTLPPSRDELTKNQVSLTCLVKGFYPSDIAVEWESNGQPENNYKTTPPVLDSDGSFFLYSKLTVDKSRWQQGNVFSCSVMHEALHNHYTQKSLSLSPGK
notes: Fused directly to Fc; two identical polypeptides
Binder B6 has an IC50 [6] of 30.1 nM and an EC50 [8] of 3.66 nM.

B7: TACI-14 Fc (Fc fusion)
chain: SLSCRKEQGKFYDHLLRDCISCASICGQHPKQCAYFDKTHTCPPCPAPEAEGAPSVFLFPPKPKDTLMISRTPEVTCVVVDVSHEDPEVKFNWYVDGVEVHNAKTKPREEQYNSTYRVVSVLTVLHQDWLNGKEYKCKVSNKALPSSIEKTISKAKGQPREPQVYTLPPSRDELTKNQVSLTCLVKGFYPSDIAVEWESNGQPENNYKTTPPVLDSDGSFFLYSKLTVDKSRWQQGNVFSCSVMHEALHNHYTQKSLSLSPGK
notes: as for B6
For B7, the IC50 [6] was 780 nM and the EC50 [8] was 64.2 nM.
